Measurements: PMC2783852 (Archives of biochemistry and biophysics, 2009)

Biological target: the molecule itself
Assay: SEC

B1: recombinant human apomanganese superoxide dismutase (enzyme, UniProt P04179 25-222, looked up)
chain: KHSLPDLPYDYGALEPHINAQIMQLHHSKHHAAYVNNLNVTEEKYQEALAKGDVTAQIALQPALKFNGGGHINHSIFWTNLSPNGGGEPKGELLEAIKRDFGSFDKFKEKLTAASVGVQGSGWGWLGFNKERGHLQIAACPNQDPLQGTTGLIPLLGIDVWEHAYYLQYKNVRPDYLKAIWNVINWENVTERYMACKK
stoichiometry N: 4
